For three substances, percent of the protein-related absorbance signal in the 10.5–10.6 S peak, stoichiometry N and percent of the A280 signal in the 12–20 S distribution (Lot 2) results are on record in paper PMC5809250.

What all share (experiment): AUC
For assay [1], the target named is Kogenate FS (recombinant full-length factor VIII, HC–LC heterodimer) (human) (UniProt P00451).
In assay [2] the target is Advate (recombinant full-length factor VIII, HC–LC heterodimer) (human) (UniProt P00451).
Assay [3] concerns the target Helixate FS (recombinant full-length factor VIII, HC–LC heterodimer) (human) (UniProt P00451).

One may read the stoichiometry N as the number of molecules, sites or subunits per partner or assembly. As to “Kogenate FS (recombinant full-length factor VIII, HC–LC heterodimer) (from UniProt P00451 20-1332; P00451 1668-2351) (complex)”, in assay [1], the percent of the protein-related absorbance signal in the 10.5–10.6 S peak amounted to 5% and the stoichiometry N worked out at 2.

For the substance “Advate (recombinant full-length factor VIII, HC–LC heterodimer) (from UniProt P00451 20-1332; P00451 1668-2351) (complex)”, in assay [2], the percent of the A280 signal in the 12–20 S distribution (Lot 2) is 3.8%, the percent of the protein-related absorbance signal in the 10.5–10.6 S peak turned out to be 7% and the stoichiometry N worked out at 2.

Consider “Helixate FS (recombinant full-length factor VIII, HC–LC heterodimer) (from UniProt P00451 20-1332; P00451 1668-2351) (complex)”, for which the stoichiometry N in assay [3] is 2.
